Consider six substances from the supplement of paper PMC5998384.

Data set [1] has as its system HeLa Kyoto. As to the kind of experiment: solubility in G1/S (NP-40 vs SDS abundance) (log2 ratio); higher = more soluble. The conditions noted are these: cell cycle stage: G1/S.
For data set [2], the system named is HeLa Kyoto. The data set is described as follows: melting temperature (median over replicates), in situ; higher = more thermally stable.
Data set [3] relates to HeLa Kyoto. The data set is described as follows: solubility change mitosis vs G1/S (difference of NP-40 vs SDS log2 ratios) (log2 ratio difference); higher = more soluble in mitosis.
The subject of data set [4] is HeLa Kyoto. The data set is described as follows: thermal stability score vs G1/S (z-score of summed log2 fold changes over temperatures); higher = more thermally stable than in G1/S.
The mark [5] stands for this setting: cell cycle stage: early G1 (4.5 h after nocodazole release).
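For melting temperature (median over replicates), in situ in this document: HeLa Kyoto cells synchronized by double thymidine or nocodazole block, proteins quantified by TMT10plex mass spectrometry, three independent biological replicates.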
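For solubility change mitosis vs G1/S (difference of NP-40 vs SDS log2 ratios) in this document: synchronized HeLa Kyoto cells (double thymidine block for G1/S, nocodazole release for mitosis), protein amounts in NP-40 versus SDS lysates quantified by mass spectrometry, three biological replicates.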
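For solubility in G1/S (NP-40 vs SDS abundance) in this document: HeLa Kyoto cells arrested at G1/S by double thymidine block, proteins quantified by TMT10plex mass spectrometry in mild NP-40 versus SDS extracts, three biological replicates.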
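For thermal stability score vs G1/S (z-score of summed log2 fold changes over temperatures) in this document: synchronized HeLa Kyoto cells, proteins quantified by TMT10plex mass spectrometry, three biological replicates, mitosis taken 0.5 h after nocodazole release, G1/S directly after double thymidine block.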

Sequence of C5ORF22 (chain, as listed by the source): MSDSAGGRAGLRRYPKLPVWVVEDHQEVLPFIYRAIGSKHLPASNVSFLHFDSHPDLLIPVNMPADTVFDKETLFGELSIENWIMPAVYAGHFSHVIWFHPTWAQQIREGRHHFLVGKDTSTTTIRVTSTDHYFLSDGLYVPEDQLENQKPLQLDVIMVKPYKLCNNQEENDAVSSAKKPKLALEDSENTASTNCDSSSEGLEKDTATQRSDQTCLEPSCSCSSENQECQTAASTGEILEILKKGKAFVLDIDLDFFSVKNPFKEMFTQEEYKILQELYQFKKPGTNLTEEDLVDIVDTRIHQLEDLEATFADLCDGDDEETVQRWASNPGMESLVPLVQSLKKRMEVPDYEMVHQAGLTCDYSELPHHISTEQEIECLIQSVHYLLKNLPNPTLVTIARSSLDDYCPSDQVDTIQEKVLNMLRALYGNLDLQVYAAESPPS

Consider “MEKLHQCYWKSGEPQSDDIEASRMKRAAAKHLIERYYHQLTEGCGNEACTNEFCASCPTFLRMDNNAAAIKALELYKINAKLCDPHPSKKGASSAYLENSKGAPNNSCSEIKMNKKGARIDFKDVTYLTEEKVYEILELCREREDYSPLIRVIGRVFSSAEALVQSFRKVKQHTKEELKSLQAKDEDKDEDEKEKAACSAAAMEEDSEASSSRIGDSSQGDNNLQKLGPDDVSVDIDAIRRVYTRLLSNEKIETAFLNALVYLSPNVECDLTYHNVYSRDPNYLNLFIIVMENRNLHSPEYLEMALPLFCKAMSKLPLAAQGKLIRLWSKYNADQIRRMMETFQQLITYKVISNEFNSRNLVNDDDAIVAASKCLKMVYYANVVGGEVDTNHNEEDDEEPIPESSELTLQELLGEERRNKKGPRVDPLETELGVKTLDCRKPLIPFEEFINEPLNEVLEMDKDYTFFKVETENKFSFMTCPFILNAVTKNLGLYYDNRIRMYSERRITVLYSLVQGQQLNPYLRLKVRRDHIIDDALVRLEMIAMENPADLKKQLYVEFEGEQGVDEGGVSKEFFQLVVEEIFNPDIGMFTYDESTKLFWFNPSSFETEGQFTLIGIVLGLAIYNNCILDVHFPMVVYRKLMGKKGTFRDLGDSHPVLYQSLKDLLEYEGNVEDDMMITFQISQTDLFGNPMMYDLKENGDKIPITNENRKEFVNLYSDYILNKSVEKQFKAFRRGFHMVTNESPLKYLFRPEEIELLICGSRNLDFQALEETTEYDGGYTRDSVLIREFWEIVHSFTDEQKRLFLQFTTGTDRAPVGGLGKLKMIIAKNGPDTERLPTSHTCFNVLLLPEYSSKEKLKERLLKAITYAKGFGML [UBE3A]”, for which the “solubility in G1/S (log2)” value in the data set with HeLa Kyoto [1] is -0.0632. Also, the melting temperature was found to be 52.8 °C with HeLa Kyoto [2] (cell cycle stage: G1/S) and 52 °C with HeLa Kyoto [2] (cell cycle stage: mitosis). Further, in the data set on HeLa Kyoto [3], the “solubility change mitosis (log2)” value is -0.175. The thermal stability score was -0.231 in the data set on HeLa Kyoto [4] (setting [5]) and -0.936 with HeLa Kyoto [4] (cell cycle stage: mitosis).
“MGYFRCARAGSFGRRRKMEPSTAARAWALFWLLLPLLGAVCASGPRTLVLLDNLNVRETHSLFFRSLKDRGFELTFKTADDPSLSLIKYGEFLYDNLIIFSPSVEDFGGNINVETISAFIDGGGSVLVAASSDIGDPLRELGSECGIEFDEEKTAVIDHHNYDISDLGQHTLIVADTENLLKAPTIVGKSSLNPILFRGVGMVADPDNPLVLDILTGSSTSYSFFPDKPITQYPHAVGKNTLLIAGLQARNNARVIFSGSLDFFSDSFFNSAVQKAAPGSQRYSQTGNYELAVALSRWVFKEEGVLRVGPVSHHRVGETAPPNAYTVTDLVEYSIVIQQLSNGKWVPFDGDDIQLEFVRIDPFVRTFLKKKGGKYSVQFKLPDVYGVFQFKVDYNRLGYTHLYSSTQVSVRPLQHTQYERFIPSAYPYYASAFSMMLGLFIFSIVFLHMKEKEKSD [DDOST]”: the “solubility in G1/S (log2)” value with HeLa Kyoto [1] was -0.0357. In addition, the melting temperature is 54.1 °C in the data set on HeLa Kyoto [2] (cell cycle stage: G1/S) and 54.2 °C in the data set on HeLa Kyoto [2] (cell cycle stage: mitosis). Besides, in the data set with HeLa Kyoto [3], the “solubility change mitosis (log2)” value was -0.163. For the same substance, the thermal stability score worked out at 2.5 in the data set on HeLa Kyoto [4] (setting [5]) and 2.41 in the data set with HeLa Kyoto [4] (cell cycle stage: mitosis).
“MLPARCARLLTPHLLLVLVQLSPARGHRTTGPRFLISDRDPQCNLHCSRTQPKPICASDGRSYESMCEYQRAKCRDPTLGVVHRGRCKDAGQSKCRLERAQALEQAKKPQEAVFVPECGEDGSFTQVQCHTYTGYCWCVTPDGKPISGSSVQNKTPVCSGSVTDKPLSQGNSGRKDDGSKPTPTMETQPVFDGDEITAPTLWIKHLVIKDSKLNNTNIRNSEKVYSCDQERQSALEEAQQNPREGIVIPECAPGGLYKPVQCHQSTGYCWCVLVDTGRPLPGTSTRYVMPSCESDARAKTTEADDPFKDRELPGCPEGKKMEFITSLLDALTTDMVQAINSAAPTGGGRFSEPDPSHTLEERVVHWYFSQLDSNSSNDINKREMKPFKRYVKKKAKPKKCARRFTDYCDLNKDKVISLPELKGCLGVSKEGRLV [SMOC1]”: in the data set with HeLa Kyoto [1], the “solubility in G1/S (log2)” value is 0.221. This substance registered a melting temperature with HeLa Kyoto [2] (cell cycle stage: mitosis) of 54.9 °C. Further, the “solubility change mitosis (log2)” value in the data set with HeLa Kyoto [3] is -0.0568. Also, the thermal stability score with HeLa Kyoto [4] (setting [5]) is -1.94; in the data set with HeLa Kyoto [4] (cell cycle stage: mitosis), -1.17.
On to “MAETSEEVAVLVQRVVKDITNAFRRNPHIDEIGLIPCPEARYNRSPIVLVENKLGVESWCVKFLLPYVHNKLLLYRTRKQWLNRDELIDVTCTLLLLNPDFTTAWNVRKELILSGTLNPIKDLHLGKLALTKFPKSPETWIHRRWVLQQLIQETSLPSFVTKGNLGTIPTERAQRLIQEEMEVCGEAAGRYPSNYNAWSHRIWVLQHLAKLDVKILLDELSSTKHWASMHVSDHSGFHYRQFLLKSLISQTVIDSSVMEQNPLRSEPALVPPKDEEAAVSTEEPRINLPHLLEEEVEFSTDLIDSYPGHETLWCHRRHIFYLQHHLNAGSQLSQAMEVDGLNDSSKQGYSQETKRLKRTPVPDSLGLEMEHRFIDQVLSTCRNVEQARFASAYRKWLVTLSQ [PTAR1]”, for which the “solubility in G1/S (log2)” value in the data set on HeLa Kyoto [1] was determined as 0.0716. In addition, the melting temperature with HeLa Kyoto [2] (cell cycle stage: G1/S) is 53 °C; in the data set on HeLa Kyoto [2] (cell cycle stage: mitosis), 52.1 °C. In the data set on HeLa Kyoto [3], the “solubility change mitosis (log2)” value was -0.125. For the same substance, the values for the thermal stability score in the data set with HeLa Kyoto [4] (setting [5]) and with HeLa Kyoto [4] (cell cycle stage: mitosis) were -1.63 and -2.24, respectively.
For C5ORF22, in the data set with HeLa Kyoto [1], the “solubility in G1/S (log2)” value was 0.303. The substance further returned a melting temperature in the data set on HeLa Kyoto [2] (cell cycle stage: G1/S) of 50.7 °C. For the same substance, the “solubility change mitosis (log2)” value in the data set with HeLa Kyoto [3] is -0.166. Moreover, the thermal stability score in the data set with HeLa Kyoto [4] (setting [5]) was -0.108; with HeLa Kyoto [4] (cell cycle stage: mitosis), 1.41.
In the case of “MAGKKVLIVYAHQEPKSFNGSLKNVAVDELSRQGCTVTVSDLYAMNLEPRATDKDITGTLSNPEVFNYGVETHEAYKQRSLASDITDEQKKVREADLVIFQFPLYWFSVPAILKGWMDRVLCQGFAFDIPGFYDSGLLQGKLALLSVTTGGTAEMYTKTGVNGDSRYFLWPLQHGTLHFCGFKVLAPQISFAPEIASEEERKGMVAAWSQRLQTIWKEEPIPCTAHWHFGQ [NQO2]”, the “solubility in G1/S (log2)” value with HeLa Kyoto [1] is 0.396. For the same substance, the melting temperature in the data set on HeLa Kyoto [2] (cell cycle stage: G1/S) was 59 °C; in the data set with HeLa Kyoto [2] (cell cycle stage: mitosis), 62 °C. Also, the “solubility change mitosis (log2)” value in the data set on HeLa Kyoto [3] is -0.0114. In addition, the thermal stability score in the data set with HeLa Kyoto [4] (setting [5]) is -1.69; with HeLa Kyoto [4] (cell cycle stage: mitosis) it was -2.35.
